This passage reports Kd results from patent US20180313836A1.

In this assay the target is Nrp1 immobilized on the biolayer interferometry biosensor (Homo sapiens (Human)) (UniProt O14786). Kind of assay: biolayer interferometry, Nrp1 immobilized on the biosensor. (Biolayer interferometry detects binding as a change in optical thickness at a sensor tip.)

The Kd is the equilibrium constant for the complex coming apart. “human glycyl-tRNA synthetase L129P (L129P-GlyRS^CMT2D) (from UniProt P41250 55-739) (enzyme)” yielded a Kd of 29.8 nM.
Next, “human glycyl-tRNA synthetase P234KY (P234KY-GlyRS^CMT2D) (from UniProt P41250 37-739) (enzyme)”: 209 nM.
